Measurements from the supplement of paper PMC11908140.

B1: library; numbered along this chain (parent)
chain: MRKPRAAVGSGHRKQAASQEGRQKHAKNNSQAKPSACDGLARQPEEVVLQASVSSYHLFRDVAEVTAFRGSLLSWYDQEKRDLPWRRRAEDEMDLDRRAYAVWVSEVMLQQTQVATVINYYTGWMQKWPTLQDLASASLEEVNQLWAGLGYYSRGRRLQEGARKVVEELGGHMPRTAETLQQLLPGVGRYTAGAIASIAFGQATGVVDGNVARVLCRVRAIGADPSSTLVSQQLWGLAQQLVDPARPGDFNQAAMELGATVCTPQRPLCSQCPVESLCRARQRVEQEQLLASGSLSGSPDVEECAPNTGQCHLCLPPSEPWDQTLGVVNFPRKASRKPPREESSATCVLEQPGALGAQILLVQRPNSGLLAGLWEFPSVTWEPSEQLQRKALLQELQRWAGPLPATHLRHLGEVVHTFSHIKLTYQVYGLALEGQTPVTTVPPGARWLTQEEFHTAAVSTAMKKVFRVYQGQQPGTCMGSKRSQVSSPCSRKKPRMGQQVLDNFFRSHISTDAHSLNSAAQ

Variants of: B1
Assay: 8OG:A repair function score (normalized; synonymous = 0, nonsense = -1) (normalized log-likelihood score); higher = more repair activity (WT-like)
Details: with 8OG:A DNA repair reporter (GFP) in HEK-293 MUTYH KO cells
Protocol: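 Saturation mutagenesis (NNN codon scan) of the MUTYH cDNA (521-aa nuclear isoform NM_001048174.1 / NP_001041639), stably expressed under doxycycline induction in HEK-293 MUTYH knockout cells. Cells were co-transfected with an 8OG:A-bearing GFP repair reporter plus mCherry and sorted 72 h later into GFP+ and GFP− bins, three replicates per tile. The Rosace log2 enrichment (GFP+ vs GFP−) was converted per tile to a normalized function score with synonymous variants centered at 0 and nonsense variants (codons 1-471) at -1; low-abundance variants were removed.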

8OG:A repair function score, by site and new letter:
R87: Q -0.219; G -0.0274; S 0.00689; W -0.0564; P -0.0432; E -0.0603; H -0.0676; V -0.0326; N -0.000681; M -0.0864; Y -0.052; K 0.00471; F -0.0196; I -0.0226; D -0.0278; T -0.0213; A -0.0289; L -0.0416; C -0.0638
D91: R 0.00216; T -0.0112; I 0.00656; M 0.00436; A 0.0065; G -0.00708; C -0.0114; F 0.00319; H 0.0064; S -0.00182; K 0.00215; V 0.0064; N -0.0978; P -0.0949; E -0.0053; Y 0.00276; L 0.00629; W -0.00643; Q -0.103
P84: K -0.876; N -0.796; W -1.29; Y -0.697; V -0.206; H -0.482; F -0.723; R -1.06; T -0.154; C -0.445; A -0.138; L -0.233; D -0.332; E -0.125; M -1.8; G -0.775; I -0.257; S -0.324; Q -0.242
D82: Q -0.0442; A -0.0548; N 0.00375; G -0.0955; C -0.0489; R -0.0624; M -0.077; H -0.148; I -0.0384; V -0.0236; E -0.035; L -0.0723; K -0.079; Y -0.0661; T -0.0186; S -0.0969; W -0.00177; P -0.00741; F -0.22
D94: N -0.0146; F -0.287; Y -0.33; I -0.0559; H -0.136; L -0.105; M -0.104; W -1; C -0.112; G -0.231; E -0.625; P -0.157; T -0.178; S -0.0913; Q -0.215; K -0.193; A -0.329; V -0.128; R -0.182
R88: E -0.00364; L 0.00676; S -0.00167; W -0.0355; K -0.364; I 0.00568; Q -0.0232; T 0.00666; V -0.0028; P -0.00404; G -0.107; Y -0.0224; D -0.0653; F -0.00866; C -0.0122; M -0.0202; H 0.0048; N -0.0146; A 0.00657
R81: W -0.422; L -0.31; N -0.365; A -0.345; I -0.704; Y -0.359; K -0.209; T -0.765; C -1.02; H -0.3; E -0.678; D -0.524; G -0.905; F -1.5; M -0.492; P -0.88; S -0.535; V -0.851; Q -0.483
E92: V -0.0677; R -0.0994; F -0.016; W -0.152; Y -0.0538; C -0.0208; Q -0.0495; D -0.0315; N -0.0998; S -0.0176; H -0.0814; L -0.011; G -0.183; I -0.0645; P -0.0511; K -0.0744; T -0.112; A -0.0671; M -0.0276
R86: D -1.26; V -1.33; P -0.841; S -1.03; Q -2.68; W -1.23; L -0.926; A -0.934; G -1.82; Y -1.03; K -0.756; H -1.85; C -0.587; F -1.75; E -2.16; T -0.606; I -0.915; N -1.17; M -1.93
M93: C 0.00101; W -0.00669; R 0.00556; E 0.0066; D 0.0046; L -0.0284; T 0.00168; A 0.00637; P -0.0336; I -0.0705; Q 0.00486; G -0.0185; H -0.01; N 0.00661; S -0.0236; F 0.00598; V 0.00114; Y -0.0084; K 0.00623
W85: Q -1.14; S -1.22; I -0.792; C -1.57; M -0.682; L -0.917; G -2.15; R -1.51; Y -0.864; F -0.238; V -1.12; D -1.51; K -3; H -2.53; E -1.28; A -1.08; T -1.61; N -1.55; P -1.05
D96: N -0.00561; S -0.15; A -0.536; T -1.12; Y -0.308; K -0.758; P -0.177; F -0.446; M -0.441; L -0.43; Q -0.0411; H -0.132; I -0.341; G -0.0459; V -0.431; W -0.378; E -0.143; R -0.506; C -0.291
L83: Y -0.478; T -0.104; G -0.971; K -0.987; N -0.585; A -0.379; S -0.387; C -0.323; H -0.597; R -0.559; W -0.827; E -0.902; P -0.673; Q -0.947; V -0.316; I -0.196; D -1.02; M -0.533; F -0.285
K80: M -0.162; R -0.0152; W -0.847; L -0.278; Q -0.0315; H 0.00371; F -0.364; T -0.469; P -0.105; I -0.35; D -1.37; G -0.194; V -0.423; E -0.31; Y -0.271; S -0.227; N -0.162
A89: T -0.00868; W -0.0308; C -0.0299; N -0.00625; P -0.00485; G -0.0247; E -0.00662; L 0.00692; K -0.0427; M 0.00504; R -0.0424; F -0.0315; Q -0.0663; H 0.00693; I -0.0304; D -0.0385; V 0.00684; Y -0.00929; S 0.00694
R97: E 0.00633; M -0.0359; A 0.00655; P -1.03; H -0.211; L -0.0375; K -0.0457; D 0.00527; F -0.0465; I 0.00215; G -0.0171; N 0.00607; C 0.00684
L95: K -0.0064; E -0.00548; N -8.88e-05; S -0.00398; A 0.00636; M 0.0014; R -0.104; H -0.053; P -0.00578; Y -0.0972; T -0.0603; I -0.0112; D 0.00648; G 0.00593; C -0.0111; F -0.0596; V -0.00351; Q -0.0116; W -0.127
E90: F -0.0713; Y -0.107; C -0.00217; M 0.0018; L 0.0056; S -0.0214; T -0.0178; G 0.00689; N -0.0107; R 0.0046; P -0.164; W -0.0857; V 0.0003; A 0.00572; Q -0.0474; I -0.0086; K 0.00313; D 0.000961; H -0.0294
